Among the data in the RNAGym collection of RNA variant scans (doi:10.7554/elife.80360) are self-cleavage values, retold here.

The chains are these.
B1: Hairpin Ribozyme (parent)
chain: GUCCUCUUUCACGUGCGCGUGAAAGAGAGAAGUGAACCAGAGAAACACACGUUGUGGUAUAUUACCUGGUA

The variants in this data set derive from B1. The experiment in a line: self-cleavage, relative activity (ratio to wild type); higher = more cleavage; co-transcriptional.
On to C46G U55A, for which the self-cleavage was 0.142.

Take G32A A36C: the self-cleavage came out at 0.145. For A44G U62A the value was 0.0675; for G29C C66A, 0.182; for A22G U60G, 0.416. In the case of U5A A23C, the self-cleavage came out at 0.436. For A11U A26U, the self-cleavage came to 0.775. Regarding U14A G68C, the self-cleavage came out at 0.25.

In the case of G57C C66U, the self-cleavage was 0.101. Regarding G19A A36C, the self-cleavage amounted to 0.511. Regarding U63A G68C, the self-cleavage turned out to be 0.225. For the variant G15U G34C, the self-cleavage stood at 1.33. Turning to G1C G19A, the self-cleavage came to 0.197.

As for A28U G51A, the self-cleavage came out at 0.716. For A24U A49G the value was 0.533. For A31U U62A the value was 0.115. For A35U U60C the value was 0.559. Turning to A47U G51A, the self-cleavage is 0.157. For C4G U63G the value was 0.217; for U55G U70A, 0.351. For U5C G13U the value was 0.579. With U9A G13A the figure was 0.471; with G51A G56A, 0.197; with C50G C66U, 0.146. Turning to U53G G57U, the self-cleavage was determined as 0.164. Turning to A36G U67A, the self-cleavage turned out to be 0.195. With G19A A41U the figure was 1.11; with C10U C65G, 0.284.

Take C3U A39C: the self-cleavage worked out at 0.199.

C4A A49U: the self-cleavage stood at 0.189.

For A41C U63C, the self-cleavage turned out to be 0.192. For U20A A28U the value was 0.497; for U7C G54A, 0.525. Consider U14G G19C, for which the self-cleavage amounted to 0.842. For C4A C65G the value was 0.179. For C4A A41G the value was 0.13; for U14A G25U, 0.521. For C16A C38G the value was 0.114; for G34A C38A, 0.267. For the variant C18U A64C, the self-cleavage is 0.216. For A31U U70C the value was 0.0555. For A26U A41U the value was 0.989. U52C G56C: the self-cleavage was 0.165. U7G G56C: the self-cleavage is 0.0943. For U5C A49G the value was 0.343; for U5C A49C, 0.377; for C3A A23G, 0.613. With G29A G51A the figure was 0.138; with G21A G40U, 0.151.

On to G1A U5A, for which the self-cleavage came to 0.152. Take A44U A45U: the self-cleavage turned out to be 0.229. With A11U A64U the figure was 0.152. With A11G A44U the figure was 0.137. For A24C A30G the value was 0.201. Take C16A A64G: the self-cleavage was determined as 0.455. With A44C U53A the figure was 0.186; with G32A U52C, 0.101; with A11C U70G, 0.608. For the variant G32U A35U, the self-cleavage amounted to 0.191. With U14A C65U the figure was 0.292; with A23C U67A, 0.211. For U62C A64C the value was 0.149; for A47C A61G, 0.17; for C4A G17A, 0.174. For G21U U58A the value was 0.493; for C18A G40A, 0.305. As for G25C A64G, the self-cleavage worked out at 0.4.

C18G C48A: the self-cleavage is 0.146. With A61G G69A the figure was 0.16. For C16U U63A the value was 0.253; for A11C G57A, 0.116. With C16G A22G the figure was 0.828.

A11G G29A: the self-cleavage worked out at 0.101. Regarding U58C U63A, the self-cleavage stood at 0.212.

On to A41G A44G, for which the self-cleavage is 0.249. For C4U U63C the value was 0.191. For A28C G57C the value was 0.145. For C6A A23U the value was 0.503; for C48U, 0.158; for A45U U55C, 0.0822. On to G51U U53C, for which the self-cleavage came out at 0.777.

Take U8A G69A: the self-cleavage came out at 0.375. A11U A35G: the self-cleavage was 0.867.

Consider A24G G40U, for which the self-cleavage turned out to be 0.147. With U33C A59C, the self-cleavage was 0.198. As for U33C A59U, the self-cleavage is 0.128. For G25A G57C the value was 0.0684; for C10U U67C, 0.206. For C37U C48A the value was 0.12; for U33G C66G, 0.0993; for C50U C65G, 0.161. For G19A A28G, the self-cleavage turned out to be 0.934. For U7G U55A the value was 0.225; for G19U A43C, 0.101.

For A26U A39U, the self-cleavage turned out to be 0.266. With G27C G34C, the self-cleavage came out at 0.971.

For the variant C4A C18U, the self-cleavage is 0.342.

As for U33A A35G, the self-cleavage turned out to be 0.17.

On to C6U G17C, for which the self-cleavage amounted to 0.434. With G21C A59G the figure was 0.206; with G1C A71U, 0.153; with U20C C46U, 0.103. With A23G G51A the figure was 0.781; with G34A G42C, 0.516. For U7A A26U the value was 0.202; for G27U C37U, 0.22.

On to C50G G69A, for which the self-cleavage was found to be 0.152. For U8A A24C the value was 0.626; for A26U G34A, 0.954; for A30U G57A, 0.0986. For A26C G68U the value was 0.186; for G29A G69A, 0.117.

On to G40U A61G, for which the self-cleavage stood at 0.186. With C12A U60C the figure was 0.893; with U9C U67A, 0.174. For U5A U60G the value was 0.29. With A36G A49C the figure was 0.0302; with G32U C48G, 0.188. With C6G A36C, the self-cleavage was 0.307. As to G15U A47U, the self-cleavage came to 0.215. With C37G A43G the figure was 0.261. With C6G U52G the figure was 0.583. As to A28U A31C, the self-cleavage amounted to 0.251.

For the variant U8G C18U, the self-cleavage was determined as 0.678. For U33C U58A the value was 0.0907; for C3U G42U, 0.21. For C10U U53C the value was 0.708; for A23U U53A, 0.969; for U14C U33G, 0.191.

For G17U G29A, the self-cleavage was 0.105.

As to G1A C65U, the self-cleavage stood at 0.0307. With G32A C37U the figure was 0.129; with A36G G51C, 0.629; with G25A G69U, 0.0604. For C48G G57U the value was 0.101. With A47C A59G the figure was 0.0267; with C38G U62C, 0.236. Take A24U C38G: the self-cleavage stood at 0.135. For C10A A43G the value was 0.132; for U2C U53A, 0.322; for A49G U70A, 0.377. For C37A G51C the value was 0.239. In the case of G34A A45U, the self-cleavage came out at 0.0941. For U2G A11U the value was 0.295; for G32A A39C, 0.0881; for U5C C65G, 0.0463. With C6A C65A the figure was 0.492; with A22G G68C, 0.182. Regarding A23C A64G, the self-cleavage was 0.646. For U20C A47U the value was 0.161; for A28U C38G, 0.0619; for A28C U70C, 0.426.

For C12U U55G, the self-cleavage turned out to be 0.181. With A31C G32U the figure was 0.348; with G17U A24C, 0.848. For U9G U53A, the self-cleavage is 0.672. For A41U C46A the value was 0.0476.

A41C U52A: the self-cleavage was found to be 1.17.

In the case of U33C G57C, the self-cleavage was found to be 0.0819.

With A47C U62A, the self-cleavage came out at 0.195. With A11G A26G the figure was 0.751; with G17U A71U, 0.815. With G40A U52G the figure was 0.212; with U7C A23U, 0.694. Take G40U C46G: the self-cleavage is 0.136. G1C G54A: the self-cleavage is 0.141. With G32C U62A the figure was 0.234.
